{"source": "paper PMC8880518", "about": "“Regulation of the Leucine Metabolism in Mortierella alpina” (Journal of Fungi, 2022)", "key": {"[1]": {"molecular_target": "T1, α-isopropylmalate synthase LeuA1 (Mortierella alpina, UniProt A0A9P6IVH7)", "T1 construct": "gene BGZ70_001638; N-terminally His6-tagged LeuA1", "test": "continuous DTNB assay of CoA release with purified recombinant enzyme", "format": "biochemical"}, "[2]": {"molecular_target": "LeuA1, α-isopropylmalate synthase of Mortierella alpina (Mortierella alpina)", "test": "SEC; size exclusion chromatography of the purified His6-tagged proteins in solution; conditions are in the Supplementary Materials"}, "[3]": {"molecular_target": "T2, BCAA aminotransferase BatA (Mortierella alpina, UniProt A0A9P6M176)", "T2 construct": "gene BCAT1; 374 aa), N-terminally His6-tagged", "T2 sequence (A0A9P6M176 entry or part of it)": "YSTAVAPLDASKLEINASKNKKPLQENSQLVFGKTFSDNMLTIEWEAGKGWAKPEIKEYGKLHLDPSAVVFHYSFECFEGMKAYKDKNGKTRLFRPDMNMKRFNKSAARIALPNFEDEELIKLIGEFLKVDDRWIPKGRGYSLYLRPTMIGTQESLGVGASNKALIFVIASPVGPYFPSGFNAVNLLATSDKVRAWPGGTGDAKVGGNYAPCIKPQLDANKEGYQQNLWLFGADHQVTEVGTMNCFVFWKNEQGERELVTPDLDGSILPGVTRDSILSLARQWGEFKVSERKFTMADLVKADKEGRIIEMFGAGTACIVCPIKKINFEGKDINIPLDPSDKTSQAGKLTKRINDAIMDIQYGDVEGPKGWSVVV", "test": "activity of purified enzyme with and without PLP (HILIC-UHPLC-MS)", "format": "biochemical"}, "[4]": {"substrate": "CC(=O)SCCNC(=O)CCNC(=O)[C@H](O)C(C)(C)COP(=O)(O)OP(=O)(O)OC[C@H]1O[C@@H](n2cnc3c(N)ncnc32)[C@H](O)[C@@H]1OP(=O)(O)O", "test": "purified protein", "settings": "divalent cation (Mg2+, exchangeable with Ca2+ or Mn2+)"}, "[5]": {"substrate": "CCC(=O)C(=O)O", "test": "Michaelis-Menten kinetics (KM), DTNB assay with purified recombinant enzyme", "format": "biochemical, Mortierella alpina", "settings": "divalent cation (Mg2+, exchangeable with Ca2+ or Mn2+)"}, "[6]": {"substrate": "CC(C)C(=O)C(=O)O", "test": "Michaelis-Menten kinetics (KM), DTNB assay with purified recombinant enzyme", "format": "biochemical, Mortierella alpina", "settings": "divalent cation (Mg2+, exchangeable with Ca2+ or Mn2+) substrate binding pocket"}}, "note": "Like-named read-outs stand apart in the source and are kept apart here.", "data": [{"molecule": "CC(C)CC(=O)C(=O)O", "note": "[KIC, α-ketoisocaproate]", "values": [{"measurement": "Ki", "setting": "[1]; read-out: KI", "result": "293 ± 30.4", "unit": "µM"}]}, {"molecule": "LeuA1, α-isopropylmalate synthase of Mortierella alpina (enzyme)", "values": [{"measurement": "stoichiometry N", "setting": "[2]", "result": 6}]}, {"molecule": "Cc1ncc(COP(=O)(O)O)c(C=O)c1O", "note": "[PLP, pyridoxal phosphate]", "values": [{"measurement": "activity of purified enzyme with and without PLP (HILIC-UHPLC-MS)", "setting": "[3]", "result": "The enzyme converted all BCAAs (L-Ile, L-Leu, L-Val) and their respective α-keto acids in a PLP-dependent manner"}]}, {"molecule": "CCC(=O)SCCNC(=O)CCNC(=O)[C@H](O)C(C)(C)COP(=O)(O)OP(=O)(O)OC[C@H]1O[C@@H](n2cnc3c(N)ncnc32)[C@H](O)[C@@H]1OP(=O)(O)O", "note": "[Prop-CoA, propionyl-CoA]", "values": [{"measurement": "Ki", "setting": "[1]", "result": "320 ± 121", "unit": "µM"}]}, {"molecule": "CC(C)C[C@H](N)C(=O)O", "note": "[Leu, L-leucine]", "values": [{"measurement": "Ki", "setting": "[1]; read-out: KI", "result": "53 ± 2.5", "unit": "µM"}]}, {"molecule": "α-isopropylmalate synthase LeuA1 (Mortierella alpina) (protein, N-terminally His6-tagged LeuA1) MAQANKDKLIIFDTTLRDGEQSPGVTLTVNEKIEIAKQLSRLGVDVLEAGFPVASQGDFDAVERIAIEVGPLMVGREALGKPITIAGLARAVPADIQRCYDAIAKAPHKRIHTFLATSDIHLEHKLKISRDECVKRAVAAVSFAKTLVQDVEFSPEDAGRSDQDFLCKVLSAVIEAGATTLNIPDTVGYNMPEEYGSMIKYLIANTKGSDTVIWSAHCHNDLGLATANTLSGIMNGIRQVEVTINGIGERAGNTAMEEVVMAIHTHPNFFPVYHTINTPLFFRISQLVSSLSGMAVQSNKAIVGANAFLHESGIHQDGVLKNKTTYEIISPETVGANTVNLVLGKHSGRAAFKSRLQELGFGELSDEEFQVAFNSFKTLADSKKRVTEQDLLALLSDQVSAASGDKATFVIKSLQVVSGTSFATATVQLQNSQTGDVVVDAAIGKSGPVEAVFLAIQRLVGKRIRLLKFDITAVGEGVDALGQVSVKIAEDTSSPGSSDNDETAEEAKDSESKANEISQATYHGHGADSDIIQAATKAYLNAINRLVANENERLLGERKVDV", "values": [{"measurement": "Km", "setting": "[4]", "result": "28.6 ± 4.1", "unit": "µM"}, {"measurement": "kcat", "setting": "[4]", "result": 25, "unit": "s⁻¹"}, {"measurement": "kcat/Km", "setting": "[4]", "result": 873000, "unit": "M⁻¹ s⁻¹"}, {"measurement": "Km", "setting": "[5]", "result": "280.8 ± 45.0", "unit": "µM"}, {"measurement": "kcat", "setting": "[5]", "result": "47.4 ± 5.41", "unit": "s⁻¹"}, {"measurement": "kcat/Km", "setting": "[5]", "result": 169000, "unit": "M⁻¹ s⁻¹"}, {"measurement": "Km", "setting": "[6]", "result": "56.9 ± 6.3", "unit": "µM"}, {"measurement": "kcat", "setting": "[6]", "result": "26.6 ± 1.2", "unit": "s⁻¹"}, {"measurement": "kcat/Km", "setting": "[6]", "result": 467000, "unit": "M⁻¹ s⁻¹"}]}]}
